Laboratory results as given in article PMC7306444.

What was measured:
Experiment in all cases: fluorescence anisotropy
GST-hFMRP KH0 = GST-hFMRP KH0 (Homo sapiens, UniProt Q06787 126-201)
GST-hFMRP KH1-KH2 = GST-hFMRP KH1-KH2 (Homo sapiens, UniProt Q06787 216-425)
GST-hFMRP KH1 = GST-hFMRP KH1 (Homo sapiens, UniProt Q06787 216-280)
GST-hFMRP KH2 = GST-hFMRP KH2 (Homo sapiens, UniProt Q06787 281-425)
GST-hFMRP KH0-KH1-KH2 = GST-hFMRP KH0-KH1-KH2 (Homo sapiens, UniProt Q06787 126-425)
GST-hFMRP RGG = GST-hFMRP RGG (Homo sapiens, UniProt Q06787 531-632)
NT-hFMRP = NT-hFMRP (Homo sapiens, UniProt Q06787 218-632)
NT-hFMRP ΔKH1 = NT-hFMRP ΔKH1 (Homo sapiens, UniProt Q06787 281-632)

UGACGGACGGACGGACGU (structured_RNA) [(GACG)4]: no binding (GST-hFMRP KH0); no binding (GST-hFMRP KH1-KH2); no binding (GST-hFMRP KH1). UGACGGACGGACGGACGU (structured_RNA) [(GACG)4]: no binding (GST-hFMRP KH2); no binding (GST-hFMRP KH0-KH1-KH2); no binding (GST-hFMRP RGG). UGACGGACGGACGGACGU (structured_RNA) [(GACG)4]: no binding (NT-hFMRP).

GGGGGGGGGGGGGGGGGU (structured_RNA) [PolyG17] was tested, and the Kd (NT-hFMRP ΔKH1) was 17 ± 3 nM, the Kd (GST-hFMRP RGG) was 8.6 ± 1.2 nM and the Kd (NT-hFMRP) was 14 ± 2 nM.

UUGGAUGGAUGGAUGGAU (structured_RNA) [(UGGA)4]: no binding (GST-hFMRP KH0); no binding (GST-hFMRP KH1-KH2); no binding (GST-hFMRP KH1). The binding result (GST-hFMRP KH2) was “no binding”, the binding result (GST-hFMRP KH0-KH1-KH2) was “no binding” and the Kd (NT-hFMRP ΔKH1) was 840 ± 39 nM. The Kd (NT-hFMRP) was 710 ± 50 nM.

In the case of UGGACUUGGACUUGGACU (ssRNA, m6A at position 10) [UGGm6ACU], the Kd (NT-hFMRP) is reported as 1250 ± 610 nM.

CCCCCCCUGGACCCCCCU (ssRNA) [UGGA]: no binding (NT-hFMRP).

UGGGGU (structured_RNA) [UG4U] gave a Kd (NT-hFMRP ΔKH1) of 80 ± 7 nM, a Kd (GST-hFMRP RGG) of 210 ± 18 nM and a Kd (NT-hFMRP) of 110 ± 16 nM.

CCCCCCCACUUCCCCCCU (ssRNA) [ACUU]: no binding (NT-hFMRP).
